Laboratory results published in patent US6820011B2, “Three-dimensional structure of complement receptor type 2 and uses thereof” (The Regents of the University of Colorado, priority 2001, dated 2004).
Entries after “also recorded” stand apart in the source; their conditions may differ.

Molecular target: T1, CR2 (Homo sapiens, UniProt P20023, G20A)
T1 sequence (P20023 20-153 G20A): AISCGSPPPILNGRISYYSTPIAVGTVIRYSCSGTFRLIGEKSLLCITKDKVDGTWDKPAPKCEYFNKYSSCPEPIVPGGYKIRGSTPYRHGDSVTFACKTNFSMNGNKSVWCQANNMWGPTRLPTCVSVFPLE
Assay: native gel shift assay of the binding between CR2 and C3d wild type or mutants
Details: for interaction with CR2 (shift of C3d band to the complex form): 6% native polyacrylamide gel, same C3d concentration, increasing amount of CR2, compared with wild type C3d
Source text: Based on the complex structure, mutagenesis of C3d around the interface to disrupt CR2 binding was predicted to be difficult. This is because the interaction between CR2 and C3 d involves mostly main-chain H-bonding, and the side chain residues play relatively small roles in the binding. However, to confirm the accuracy of the CR2-C3d interaction seen in this co-crystal structure, two informative C3d mutants were constructed. In mutant 170 (mt170; SEQ ID NO:8), residue Asn170 was changed to Arg. Asn170 is located on H7 of C3d and is the only residue on C3d that more or less points directly toward CR2 in the interface (FIG. 3E). Asn170 also packs directly with Tyr81 of CR2 as well as forms an H-bond with CR2 (Lys100) through a water molecule (FIG. 3E).
Briefly, FIGS. 4A and 4B show a native gel shift assay of the binding between CR2 and C3d wild type (wt) or mutants (mt). […] The C3d band will be shifted to the upper part of the gel when it forms a complex with CR2. The C3d concentration (for both wt and mt) is the same throughout lanes 1-12. The CR2 added to each corresponding lanes for wt and mt C3d was also the same, e.g. same amount of CR2 was added to the C3d samples in lane 2, 6 and 10, or in lanes 4, 8 and 12. […] The same conclusion can be drawn by comparing the intensity of the bands of the complexes containing the wt, mt115 and mt170. FIG. 4B is a graphical representation showing the intensity changes of the complex bands (measured by densitometry) as CR2 concentration increases from lanes 2 to 4 (wt), or lanes 6 to 8 (mt115), or lanes 10 to 12 (mt170).
The result shown in this experiment is consistent with that predicted by the interaction interface seen in the complex structure. […] This is consistent with the complex structure in that all these three residues, even though located within the interface area, have their side chains pointing sideways and are not involved in the direct contact with CR2. The side chain of Glu117, however, participates in the Zn coordination. […] The coordinated Zn in the structure, therefore, could simply come from the crystallization buffer which contained ZnAcetate.

Row | Substance | interaction with CR2 (shift of C3d band to the complex form) | apparent affinity for CR2 from intensity of the complex bands (densitometry) (as CR2 concentration increases, FIG. 4B)
1 | wt: wild type human C3d (SEQ ID NO:7), CR2 ligand [reference compound] | completely shifted to the complex form | 
2 | mt170: C3d mutant, residue Asn170 changed to Arg (SEQ ID NO:8) | clearly less strong; also recorded: still contains an obvious C3d band | less apparent affinity for CR2 than wt and mt115
3 | mt115: C3d mutant Gln105Ala, Leu116Ala, Glu117Ala | completely shifted to the complex form; also recorded: no obvious effect on CR2 binding | 
